From the RNAGym collection of RNA variant scans (doi:10.7554/elife.80360)

B1: HDV Ribozyme (parent)
chain: GGCCGGCAUGGUCCCAGCCUCCUCGCUGGCGCCGGCUGGGCAACAUUCCGAGGGGACCGUCCCCUCGGUAAUGGCGAAUGGGACCCA

Variants of: B1
Assay: self-cleavage, relative activity (ratio to wild type); higher = more cleavage; co-transcriptional

Row | Variant | self-cleavage
1 | G34U C48U | 0.112
2 | G34U C48G | 0.151
3 | G34U C48A | 0.251
4 | G35A C86G | 0.739
5 | G35A G73A | 0.372
6 | G35A G73U | 0.223
7 | G35A G73C | 0.138
8 | G34U U65C | 0.197
9 | G34U U65G | 0.146
10 | G34U G39A | 0.174
11 | G34U C58G | 0.0811
12 | G34U C58A | 0.111
13 | G35A G40C | 0.163
14 | G35A A87G | 0.473
15 | G35A A87C | 0.444
16 | G34U G68U | 0.0966
17 | G34U G68C | 0.322
18 | G35A A78G | 0.138
19 | G35A A78U | 0.253
20 | G34U G67U | 0.231
21 | G34U G67A | 0.115
22 | G34U G67C | 0.22
23 | G34U U72A | 0.151
24 | G34U U72C | 0.164

Row | Variant | self-cleavage
25 | G34U C57U | 0.174
26 | G34U C62G | 0.117
27 | G35A C61A | 0.635
28 | G35A C61G | 0.465
29 | G34U A56C | 0.219
30 | G34U A87U | 0.141
31 | G34U A87G | 0.122
32 | G34U A87C | 0.119
33 | G35A A42G | 0.17
34 | G35A U46A | 0.332
35 | G34U C75A | 0.107
36 | G34U C75U | 0.109
37 | G34U C75G | 0.214
38 | G35A G81C | 0.188
39 | G35A G81U | 0.105
40 | G34U C41A | 0.133
41 | G34U C41G | 0.0723
42 | G35A C63A | 0.332
43 | G35A C63U | 0.91
44 | G34U A51C | 0.0707
45 | G34U A51G | 0.339
46 | G35A G53C | 0.65
47 | G34U C64A | 0.268
48 | G34U C64G | 0.277

Row | Variant | self-cleavage
49 | G34U A70G | 0.0997
50 | G34U A70U | 0.182
51 | G34U A70C | 0.17
52 | G35A G74C | 0.208
53 | G35A G74A | 0.157
54 | G35A G67U | 0.361
55 | G35A G67C | 0.564
56 | G35A G67A | 0.328
57 | G35A C64A | 0.379
58 | G34U G59U | 0.229
59 | G35A G82A | 0.265
60 | G35A G82C | 0.266
61 | G35A C84A | 0.62
62 | G35A C84U | 0.464
63 | G35A G39U | 0.128
64 | G35A G39A | 0.219
65 | G35A G55A | 0.736
66 | G35A G55U | 0.577
67 | G35A G52C | 0.409
68 | G35A G52A | 0.47
69 | G35A G52U | 0.513
70 | G34U G74C | 0.138
71 | G35A C49U | 0.596
72 | G35A C49A | 0.591

Row | Variant | self-cleavage
73 | G34U U46A | 0.0639
74 | G35A C36U | 0.0817
75 | G35A C36G | 0.35
76 | G34U G40C | 0.0415
77 | G34U G40A | 0.0542
78 | G34U C36U | 0.0482
79 | G34U C36A | 0.106
80 | G35A C44U | 0.188
81 | G35A C44A | 0
82 | G35A C44G | 0.0639
83 | G34U G53U | 0.223
84 | G34U U79C | 0.201
85 | G34U U79A | 0.138
86 | G35A A83G | 0.258
87 | G35A A83U | 0.507
88 | G34U G35C | 0.154
89 | G34U G35A | 0.204
90 | G35A U37G | 0.163
91 | G35A U37C | 0.396
92 | G35A U37A | 0.0898
93 | G35A A77C | 0.131
94 | G35A A77U | 0.253
95 | G34U C84A | 0.176
96 | G34U C84U | 0.261

Row | Variant | self-cleavage
97 | G34U U69G | 0.0361
98 | G34C U79G | 0.0615
99 | G34U U60G | 0.166
100 | G34U U60A | 0.0817
101 | G34U U60C | 0.175
102 | G35A C66A | 0.415
103 | G35A C66G | 0.655
104 | G34U A43C | 0.243
105 | G34U A43U | 0.104
106 | G34U A43G | 0.0978
107 | G34U G80U | 0.128
108 | G34U G73C | 0.289
109 | G34U A77C | 0.0678
110 | G34U A77G | 0.086
111 | G34U G52C | 0.101
112 | G34U G52U | 0.0588
113 | G35A G68C | 0.676
114 | G35A G68U | 0.584
115 | G35A G68A | 0.496
116 | G34U G55A | 0.114
117 | G34U G55C | 0.102
118 | G35A C58U | 0.478
119 | G35A C58G | 0.594
120 | G35A C58A | 0.46

Row | Variant | self-cleavage
121 | G34U G82U | 0.0631
122 | G34U G82C | 0.138
123 | G35A G54U | 0.743
124 | G34U C44U | 0.0241
125 | G34U C44G | 0.173
126 | G34U G50C | 0.0906
127 | G34U G50A | 0.312
128 | G35A U47C | 0.489
129 | G35A U47G | 0.443
130 | G35A C85A | 0.644
131 | G35A C85G | 0.643
132 | G34U A83G | 0.169
133 | G35A A45G | 0.443
134 | G35A A71U | 0.389
135 | G35A A71C | 0.125
136 | G34U C63U | 0.166
137 | G34U C63A | 0.164
138 | G35A A51C | 0.467
139 | G35A A51U | 0.496
140 | G34U A42C | 0.0963
141 | G34U A42U | 0.252
142 | G34U A45G | 0.0652
143 | G34U A45C | 0.117
144 | G35A U60A | 0.596

Row | Variant | self-cleavage
145 | G35A U60C | 0.554
146 | G35A C57U | 0.686
147 | G35A A56U | 0.72
148 | G34U A71U | 0.208
149 | G34U A71G | 0.154
150 | G35A A70G | 0.491
151 | G35A A70C | 0.434
152 | G35A | 0.605
153 | G35A G38A | 0.0923
154 | G35A G38U | 0.145
155 | G34U G81U | 0.18
156 | G34U C61G | 0.378
157 | G34U C61U | 0.208
158 | G34U C49G | 0.166
159 | G35A G50A | 0.692
160 | G35A G50C | 0.346
161 | G34U C86A | 0.325
162 | G34U C86G | 0.205
163 | G34U C86U | 0.187
164 | G34U U47A | 0.128
165 | G34U U47G | 0.267
166 | G35A G76U | 0.902
167 | G35A G76C | 0.708
